Reference: US20240228562A1 (Pieris, published 2024)
Each block holds one binder with its values, some of them ahead of it.

Columns and labels:
[1] = target: T1, recombinant rat CTGF protein (R&D Systems) (rat, UniProt Q9R1E9 25-347); assay: ELISA, coated target
T1 construct: Bought; also called rCTGF
T1 sequence: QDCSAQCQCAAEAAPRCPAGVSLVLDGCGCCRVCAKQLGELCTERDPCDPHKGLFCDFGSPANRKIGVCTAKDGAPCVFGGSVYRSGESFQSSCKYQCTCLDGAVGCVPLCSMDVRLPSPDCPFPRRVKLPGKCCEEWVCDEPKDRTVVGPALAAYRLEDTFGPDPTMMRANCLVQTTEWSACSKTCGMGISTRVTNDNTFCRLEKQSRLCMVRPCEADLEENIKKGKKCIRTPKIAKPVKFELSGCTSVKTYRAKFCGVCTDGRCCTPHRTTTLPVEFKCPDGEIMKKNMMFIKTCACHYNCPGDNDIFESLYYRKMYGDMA

cynomolgus CTGF = target: T2, cynomolgus CTGF (cynomolgus, UniProt I7G525 27-349); assay: SPR (Biacore)
T2 construct: also called cyCTGF
T2 sequence: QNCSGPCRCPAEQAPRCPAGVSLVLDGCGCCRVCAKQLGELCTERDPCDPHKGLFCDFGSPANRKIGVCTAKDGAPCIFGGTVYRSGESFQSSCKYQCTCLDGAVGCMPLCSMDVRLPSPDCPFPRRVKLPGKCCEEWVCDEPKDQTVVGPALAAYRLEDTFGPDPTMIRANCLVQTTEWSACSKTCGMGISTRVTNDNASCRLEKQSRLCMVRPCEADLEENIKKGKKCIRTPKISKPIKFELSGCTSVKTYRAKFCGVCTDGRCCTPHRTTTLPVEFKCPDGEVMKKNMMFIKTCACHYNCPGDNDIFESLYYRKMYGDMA
Outline: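 Lipocalin muteins injected at 25 °C over CTGF either Fc-tagged and captured by anti-human IgG-Fc (0.25-2.5 μg/mL in HBS-EP+, 180 s) or amine-coupled directly to a CM5 chip. Association 180 s, dissociation 900-3600 s, flow 30 μL/min.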

B2: lipocalin mutein of SEQ ID NO: 7 (designed binder)
chain: QDSTSDLIPAPPLSKVPLQQNFQDNQFHGKWYVVGLAGNYGLRTDKRPSKMFATIYELKEDKSYDVTSVRFEQERCHYTIRTFVPGSQPGEFTTGSIKSRPGQTSSLVRVVSTNYNQHAMVFFKSVIQNREYFAITLYGRTKELTSELKENFIRFSKSLGLPENHIVFPVPIDQCIDGSAWSHPQFEK
notes: Parent hNGAL mutein; also called hNGAL mutein
- EC50 [1]: 41 nM

B3: lipocalin mutein of SEQ ID NO: 25 (designed binder)
chain: QDSTSDLIPAPPLSKVPLQQNFQDNQFHGKWYVVGMAGNFRLREDKDPSKMGATIYELKEDKSYNVTQVQFDDKKCLYVIETFVPGSQPGEFTLGAIKSFPGFTSQLVRVVSTNYNQHAMVFFKKVYQNREVFWITLYGRTKELTSELKENFIRFSKSLGLPENHIVFPVPIDQCIDGSAWSHPQFEK
notes: as for B2
- EC50 [1]: 23 nM

B5: lipocalin mutein of SEQ ID NO: 15 (designed binder)
chain: QDSTSDLIPAPPLSKVPLQQNFQDNQFQGKWYVVGLAGNAILREDKQPAKMFATIYELKEDKSYDVTSVRFEAKSCKYTIKTFVPGSQPGEFTAGYIKSAPGQTSTLVRVVSTNYNQHAMVFFKHVTQNREIFVITLYGRTKELTSELKENFIRFSKSLGLPENHIVFPVPIDQCIDG
notes: also called hNGAL mutein; not shown: C-terminal His-tag
- Kd (cynomolgus CTGF): 0.707 nM
- koff (cynomolgus CTGF): 7.57e-05 s⁻¹
- kon (cynomolgus CTGF): 107000 M⁻¹ s⁻¹

Other lines, results leading:

- EC50 [1]: 30 nM
B1: lipocalin mutein of SEQ ID NO: 9 (designed binder)
chain: QDSTSDLIPAPPLSKVPLQQNFQDNQFHGKWYVVGLAGNKILRIDKQPAKMFATIYELKEDKSYDVTSVRFEARSCSYTIKTFVPGSQPGEFTAGNIKSAPGQTSTLVRVVSTNYNQHAMVFFKHVSQNRETFVITLYGRTKELTSELKENFIRFSKSLGLPENHIVFPVPIDQCIDGSAWSHPQFEK
notes: as for B2

- EC50 [1]: 20 nM
B4: lipocalin mutein of SEQ ID NO: 29 (designed binder)
chain: QDSTSDLIPAPPLSKVPLQQNFQDNQFHGKWYVVGWAGNIKLREDKDPFKMSATIYELKEDKSYNVTEVVFEQKKCHYIIKTFVPGSQPGEFTLGDIKSPPGETSSLVRVVSTNYNQHAMVFFKKVFQNREFFWITLYGRTKELTSELKENFIRFSKSLGLPENHIVFPVPIDQCIDGSAWSHPQFEK
notes: as for B2
